# PMC10457294 (Nature Communications, 2023)
# Tests used:
# [1] = molecular target: MPXV Bio-M2 (site-specifically biotinylated MPXV Avi-M2) (monkeypox virus (Clade I), UniProt Q8V554 18-220); test: BLI; […] (10 ug/mL) […]; 10 mM HEPES pH 7.4, 150 mM NaCl, 3 mM EDTA, 1% BSA; 1:1 Langmuir model, […]; conditions: both partners purified
# [2] = molecular target: T1, MPXV M2 (monkeypox virus M2 protein), His-tagged, wild type (monkeypox virus (Clade I), UniProt Q8V554 18-220); test: BLI; […] (10 ug/mL) […]; 10 mM HEPES pH 7.4, 150 mM NaCl, 3 mM EDTA, 0.05% Tween, 1% BSA; 25 °C; 1:1 model; […]; conditions: both partners purified
# T1 construct: copies: 6 or 7
Binder,Kd [1] [nM],t1/2 (dissociation half-life time) [1] [min],Kd [2] [nM]
"human B7.1 ectodomain, His-tagged (domain or fragment, also called hB7.1; CD80) VIHVTKEVKEVATLSCGHNVSVEELAQTRIYWQKEKKMVLTMMSGDMNIWPEYKNRTIFDITNNLSIVILALRPSDEGTYECVVLKYEKDAFKREHLAEVTLSVKADFPTPSISDFEIPTSNIRRIICSTSGGFPEPHLSWLENGEELNAINTTVSQDPETELYAVSSKLDFNMTTNHSFMCLIKYGHLRVNQTFNWNTT",95.3,1.71,
"human B7.2 ectodomain, His-tagged (domain or fragment, also called hB7.2; CD86) LKIQAYFNETADLPCQFANSQNQSLSELVVFWQDQENLVLNEVYLGKEKFDSVHSKYMGRTSFDSDSWTLRLHNLQIKDKGLYQCIIHHKKPTGMIRIHQMNSELSVLANFSQPEIVPISNITENVYINLTCSSIHGYPEPKKMSVLLRTKNSTIEYDGVMQKSQDNVTELYDVSISLSVSFPDVTSNMTIFCILETDKTRLLSSPFSIELED",388,0.345,
"human B7.1 ectodomain fused to human Fc (Fc fusion, UniProt P33681-1 35-234, looked up, also called hB7.1-Fc; hB7.1-hFc; not shown: Fc (human), C-terminal, kept) VIHVTKEVKEVATLSCGHNVSVEELAQTRIYWQKEKKMVLTMMSGDMNIWPEYKNRTIFDITNNLSIVILALRPSDEGTYECVVLKYEKDAFKREHLAEVTLSVKADFPTPSISDFEIPTSNIRRIICSTSGGFPEPHLSWLENGEELNAINTTVSQDPETELYAVSSKLDFNMTTNHSFMCLIKYGHLRVNQTFNWNTT",,,0.15
"human B7.2 ectodomain fused to human Fc (Fc fusion, also called hB7.2-Fc; hB7.2-hFc; not shown: Fc (human), C-terminal, kept) LKIQAYFNETADLPCQFANSQNQSLSELVVFWQDQENLVLNEVYLGKEKFDSVHSKYMGRTSFDSDSWTLRLHNLQIKDKGLYQCIIHHKKPTGMIRIHQMNSELSVLANFSQPEIVPISNITENVYINLTCSSIHGYPEPKKMSVLLRTKNSTIEYDGVMQKSQDNVTELYDVSISLSVSFPDVTSNMTIFCILETDKTRLLSSPFSIELED",,,0.05
